According to patent US20240025969A1, “NPC1 MONOBODIES AND MONOBODY CONJUGATES THEREOF” (NEW YORK UNIVERSITY, priority 2020, published 2024):
Entries after “also recorded” stand apart in the source; their conditions may differ.

T1: NPC1 (Homo sapiens, UniProt O15118)
T1 construct: endogenous in cells; host or cells: DLD-1 (mutant KRas colorectal cancer cells)
T1 sequence (O15118 23-1278): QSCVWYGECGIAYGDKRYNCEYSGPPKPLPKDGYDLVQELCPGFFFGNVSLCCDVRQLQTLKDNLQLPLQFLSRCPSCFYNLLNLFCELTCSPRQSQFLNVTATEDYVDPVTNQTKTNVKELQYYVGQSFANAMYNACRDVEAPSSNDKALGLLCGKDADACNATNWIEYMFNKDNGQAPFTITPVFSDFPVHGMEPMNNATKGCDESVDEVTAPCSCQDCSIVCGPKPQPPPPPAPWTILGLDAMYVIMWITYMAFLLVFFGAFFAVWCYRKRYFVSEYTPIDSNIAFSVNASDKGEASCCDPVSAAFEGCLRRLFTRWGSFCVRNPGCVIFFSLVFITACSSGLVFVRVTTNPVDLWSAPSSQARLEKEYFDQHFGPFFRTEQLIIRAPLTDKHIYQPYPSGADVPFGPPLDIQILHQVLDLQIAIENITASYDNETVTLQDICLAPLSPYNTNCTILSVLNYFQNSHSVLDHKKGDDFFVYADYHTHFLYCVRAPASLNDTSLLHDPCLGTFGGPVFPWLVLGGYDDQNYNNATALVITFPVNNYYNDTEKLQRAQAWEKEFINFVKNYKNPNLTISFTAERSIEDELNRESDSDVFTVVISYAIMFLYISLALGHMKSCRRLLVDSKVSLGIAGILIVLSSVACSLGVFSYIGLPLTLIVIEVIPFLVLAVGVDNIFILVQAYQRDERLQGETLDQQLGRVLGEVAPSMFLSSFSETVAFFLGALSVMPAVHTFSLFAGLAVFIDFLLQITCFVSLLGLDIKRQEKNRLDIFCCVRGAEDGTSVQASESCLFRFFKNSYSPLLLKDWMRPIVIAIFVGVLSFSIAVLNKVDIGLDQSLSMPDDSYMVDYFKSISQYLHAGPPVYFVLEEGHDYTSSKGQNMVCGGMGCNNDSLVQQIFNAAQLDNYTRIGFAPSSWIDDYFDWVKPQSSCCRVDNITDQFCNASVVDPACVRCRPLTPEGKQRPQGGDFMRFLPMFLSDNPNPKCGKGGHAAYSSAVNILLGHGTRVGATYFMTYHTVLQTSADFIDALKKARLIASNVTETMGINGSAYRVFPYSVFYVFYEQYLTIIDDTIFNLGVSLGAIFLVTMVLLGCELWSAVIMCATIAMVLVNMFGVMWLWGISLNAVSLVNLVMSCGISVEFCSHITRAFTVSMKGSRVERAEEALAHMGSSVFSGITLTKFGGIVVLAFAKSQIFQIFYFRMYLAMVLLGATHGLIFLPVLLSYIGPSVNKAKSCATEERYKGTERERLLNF


Columns and labels:
[1] = tested on: ERK; assay: ERK hyperactivation in NPC1 knockdown cells, EGFR inhibition; assay type: cell-based; conditions: short-term EGFR inhibition
[2] = tested on: Mutant Ras PDAC MIA PaCa-2 cells; assay: Split GFP assay for endosomal escape of GFP11; assay type: cell-based; conditions: MIA PaCa-2 cells expressing GFP1-10; 600 mM GFP11 with 1 mM monobody for 24 hrs
Method: Mutant Ras PDAC MIA PaCa-2 cells stably expressing cytoplasmic GFP1-10 were treated with 600 mM GFP11 with or without 1 mM of the N23 or N34 NCP1 monobody for 24 hrs.
A split GFP assay was developed to measure endosomal escape of proteins. Mutant Ras PDAC MIA PaCa-2 cells were stably expressed with GFP1-10, which is missing the 11β domain needed for fluorescence, making endosomal escape of GFP110 necessary for a positive signal. NPC1 targeting and control monobodies were co-delivered with the free GFP110 domain.

[3] = tested on: HeLa KRasV12 cells; assay: LC3B accumulation in macropinocytosis-positive mutant KRas HeLa cells; assay type: cell-based
Method: (§1) FIGS. 8A-8B show mutant KRas-dependent effects of NPC1-targeting monobodies. N23 and N34 clones were analyzed for effect on macropinocytosis negative wild-type KRas HeLa cells (FIG. 8A) versus macropinocytosis-positive mutant KRas […] cells (FIG. 8B). FN is a non-targeting monobody control. Arrows indicate LC3B accumulation.

[4] = tested on: HeLa cells; assay: LC3B accumulation in macropinocytosis negative wild-type KRas HeLa cells; assay type: cell-based
Method: as §1

[5] = tested on: PDAC MIA PaCa3 cells; assay: Calcein endosomal release assay, with or without nanoparticle delivery vehicle; assay type: cell-based; conditions: for endosomal release of calcein: calcein alone (PBS) or packaged in pegylated nanoparticle delivery vehicles (90 nm Nano), both conditions; for calcein fluorescence (endosomal release of calcein): co-delivery with calcein (FIG. 17)
From the text: Calcein is a membrane impermeable, fluid phase uptake marker that is semi-quenched when in close proximity with other calcein molecules in vesicular compartments, but with intracellular release and molecule diffusion, dequenching causes an increase in cellular fluorescence.
FIGS. 18A-18B show an NCP1 monobody mediated increase in endosomal calcein release that was further improved in the presence of a nanoparticle delivery vehicle. FIG. 18A is a panel of immunocytochemical images of PDAC MIA PaCa3 cells treated with calcein alone (PBS) or packaged in a pegylated nanoparticle delivery vehicles (90 nm Nano) (images of top row). […] FIG. 18B is a graph quantifying calcein fluorescence in each of the tested conditions.
Endosome escape was again observed in a small molecule assay (FIG. 17). Calcein is a membrane impermeable, fluid phase uptake marker that is semi-quenched when in close proximity with other calcein molecules in vesicular compartments, but with intracellular release and molecule diffusion, dequenching causes an increase in cellular fluorescence. […] The NPC1 targeting monobodies have been established to induce small molecule, biologic, and nanoparticle escape.

[6] = molecular target: T1, NPC1; assay: Screen for NPC1-inhibitory monobodies: intracellular cholesterol trafficking, filipin; assay type: cell-based; conditions: for inhibition of NPC1 by endosomal accumulation of cholesterol: DLD1 cells (Ras mutation, colon), cholesterol measured by filipin; for cholesterol entrapment / vesicle disruption: DLD1 cells, preliminary data; for cholesterol entrapment: filipin
From the text: FIG. 7A is a graph showing the effect of monobody clones on intracellular cholesterol trafficking. FIG. 7B are representative cell images from FIG. 7A. FIG. 7C is a heat map representation of cholesterol localization from FIG. 7B.
A major benefit of monobodies over antibodies is the lower cost in manufacturing. However, if monobodies need to be re-folded or aggregate during production, the cost of manufacturing can exceed that of antibodies. […] Utilizing both the imaging-based and biochemical approaches, it was confirmed that the monobodies described herein inhibit NPC1 in cell culture. […] FIG. 7B DLD1 cells (Ras mutation, colon) were treated with the top monobody hits and cholesterol was measured by filipin.

[7] = tested on: HCT-116 cell; assay: HCT-116 cell proliferation, Syto60 assay; assay type: cell-based; conditions: Syto60 assay after 3 days of treatment, n=3
Method: Proliferation was analyzed by Syto60 assay after 3 days of treatment. n=3

[8] = tested on: HCT-116; assay: Monobody uptake in mutant KRas CRC cells HCT-116; assay type: cell-based; conditions: mutant KRas CRC cells HCT-116, macropinocytosis positive
From the text: (§2) FIGS. 10A-10B show monobody selectivity in colorectal DLD-1 and HCT-116 cancer cells (CRC).
(§3) Confirmation that uptake is dependent on macropinocytosis was confirmed in CRC cell lines. […] It was also observed that upon NPC1 knockdown in vitro, there is ERK hyperactivation (FIG. 13A). This observation was confirmed using the N34 monobody in vivo (FIG. 13B).

[9] = tested on: HCT-116; assay: LC3B accumulation in HCT-116 cells; assay type: cell-based
From the text: as §2, §3

[10] = tested on: xenografts; assay: Intratumor injection of monobody into xenografts; assay type: in vivo
Method: FIG. 11 show the in vivo cholesterol alterations with NPC1-targeting monobody (N34) versus non-targeting control (FN).
Monobody (1 uM; 50ul volume) was intratumorally injected two hours prior to tumor extraction.
Monobody (1 uM; 50ul volume) was intratumorally injected two hours prior to tumor extraction. Images were taken of serial sections from FIG. 13B.
as §3

[11] = tested on: DLD-1; assay: Monobody uptake in mutant KRas CRC cells DLD-1; assay type: cell-based; conditions: mutant KRas CRC cells DLD-1, macropinocytosis positive
From the text: as §2, §3

[12] = tested on: HCA7; assay: Monobody uptake in wild-type KRas CRC cells; assay type: cell-based; conditions: macropinocytosis negative
From the text: as §2, §3

[13] = N34-positive vs N34-negative areas, 1 uM, 50ul intratumorally, 2 hours post-injection
[14] = N34-positive vs N34-negative tumor, 1 uM, 50ul intratumorally two hours prior to tumor extraction

Row | inhibition of NPC1 by endosomal accumulation of cholesterol [6] | cholesterol entrapment [6] | vesicle disruption [6] | Molecule | ERK hyper-activation [1] | fluorescence (endosomal escape of GFP11) [2] | LC3B accumulation [3] | LC3B accumulation [4] | endosomal release of calcein [5] | calcein fluorescence (endosomal release of calcein) [5] | CRC cell proliferation [7] | uptake of monobody [8] | accumulation of LC3B [9] | LC3B accumulation in xenograft [10, 13] | cholesterol accumulation in xenograft [10, 13] | EGFR phosphorylation (activation) in tumor [10, 14] | ERK phosphorylation (hyperactivation) in tumor [10, 14] | cholesterol accumulation in tumor cells ([10]; N34 positive tumor cells compared to non-targeting control monobody (FN)) | uptake in CK8-positive tumor cells ([10]; intratumor injection into xenografts) | uptake of monobody [11] | uptake of monobody [12]
1 |  |  |  | COc1cc2ncnc(Nc3ccc(F)c(Cl)c3)c2cc1NC(=O)/C=C/CN1CCCCC1 [dacomitinib] | blocked ERK hyper-activation |  |  |  |  |  |  |  |  |  |  |  |  |  |  |  | 
2 | greatest inhibition of NPC1 | improved cholesterol entrapment | induce vesicle disruption | N23: NPC1-targeting monobody clone N23 (SEQ ID NO: 36) (protein) VSSVPTKLEVVAATPTSLLISWDASSSSVSYYRITYGETGGPFWHYQTFTVPGSKSTATISGLKPGVDYTITVYTYSSSMHFSSSPISINYRT |  | observed | did show an effect | did not induce LC3B accumulation | enhanced endosomal release of calcein | increasing calcein fluorescence | no significant inhibition |  |  |  |  |  |  |  |  |  | 
3 | greatest inhibition of NPC1 | improved cholesterol entrapment | induce vesicle disruption | N34: NPC1-targeting monobody clone N34 (SEQ ID NO: 40) (protein) VSSVPTKLEVVAATPTSLLISWDAPAVTVSYYVITYGETGGHYWHWQTFKVPGSKSTATISGLKPGVDYTITVYAYYGQMRYYSPISINYRT |  | observed | did show an effect | did not induce LC3B accumulation | enhanced endosomal release of calcein | increasing calcein fluorescence | growth inhibitory effect | efficiently internalize | dose-dependent accumulation of LC3B | robust cholesterol and LC3B accumulation; also recorded: induces cholesterol and LC3B accumulation | robust cholesterol and LC3B accumulation; also recorded: induces cholesterol and LC3B accumulation | EGFR activation was seen; also recorded: induces EGFR phosphorylation | confirmed; also recorded: induces ERK phosphorylation | displayed cholesterol accumulation | showed uptake | efficiently internalize | fail to uptake
